This is an account of results in US7790682B1, “Engineered human acidic fibroblast growth factors and associated methods” (The Florida State University Research Foundation, Inc., priority 2003, dated 2010).

Data set [1] is described as follows: Heparin Sepharose affinity chromatography / heparin-binding affinity. The following applies: predicted from data on other Δ120-122 mutants. From the text:
All studies herein disclosed utilized a synthetic gene for the 140 amino acid form of human FGF-1 with the addition of an amino-terminal six residue “His-tag” to facilitate purification using nickel nitrilotriacetic acid (Ni-NTA) affinity resin (QIAGEN, Valencia Calif.). The QuikChange® site-directed mutagenesis protocol (Stratagene, La Jolla Calif.) was used to introduce mutations, individually or in combination, using mutagenic oligonucleotides of 25 to 31 bases in length (Biomolecular Analysis Synthesis and Sequencing Laboratory, Florida State University). For deletions involving residues 104-106 and 120-122, mutagenic oligonucleotides were used to delete these positions as well as to simultaneously create point mutations Ala103 ? Gly and Arg119 ? Gly, respectively. […]
All mutant proteins, with the exception of the SYM6 mutant were expressed at levels similar to the WT* protein (i.e. ˜30-100 mg/L). […] Phe, and E280nm (0.1%, 1 cm)=1.31 for all deletion mutations (determined by dithionitrobenzoate titration of cysteine residues).
To quantify the reduced affinity for heparin (a polysulfonated polysaccharide) we determined the affinity for sucrose octasulfate, a structural mimic of a heparin dimer, by isothermal titration calorimetry. […]

Data set [2] has as its system NIH 3T3 fibroblasts. Briefly: Cell proliferation (mitogenic activity) assay. Format: cell-based. Conditions: predicted from data on other Δ120-122 mutants. On the procedure:
NIH 3T3 fibroblasts were initially plated in Dulbecco's modified Eagle's medium (DMEM) (American Type Culture Collection, Manassas Va.) supplemented with 10% (v/v) newborn calf serum (NCS) (Sigma, St. Louis Mo.), 100 units of penicillin, 100 μg streptomycin, 0.25 μg Fungizone™ and 0.01 mg/ml gentamicin (Gibco, Carlsbad Calif.) (“serum-rich” medium) in T75 tissue culture flasks (Fisher, Pittsburgh Pa.). The cultures were incubated at 37° C. and all cell growth was performed with 5% CO2 supplementation. At approximately 80% cell confluence, the cells were washed with 5 ml cold 0.14M NaCl, 5.1 mM KCl, 0.7 mM Na2HPO4 and 24.8 mM Trizma® base, pH 7.4 (TBS) and subsequently treated with 5 ml of a 0.025% trypsin solution (Invitrogen Corp., Carlsbad Calif.). Cell synchronization was initiated by serum starvation in DMEM with 0.5% NCS, 100 units of penicillin, 100 μg streptomycin, 0.25 μg Fungizone™ and 0.01 mg/ml gentamicin (“starvation” medium). The cells were seeded in T25 tissue culture flasks (Fisher, Pittsburgh, Pa.) at a cell density of 3.0×10^4 cells/cm^2 (representing ˜20% confluence). Duplicate flasks were used for each protein concentration. Cultures were incubated for 48 hours at 37° C., the medium was then decanted and replaced with fresh medium supplemented with the appropriate concentration of FGF-1 polypeptide, and incubated for an additional 48 hours. After this incubation, the medium was decanted and the cells were washed with 1 ml cold TBS pH 7.4. 1 ml of 0.025% trypsin was then added to release the cells from the flask surface, and 2 ml of serum-rich medium were added to dilute and inhibit the trypsin. The cells were counted using a hemocytometer (Hausser Scientific Partnership, Horsham Pa.). Experiments were performed in quadruplicate and the cell densities were averaged. The relationship between the cell number and log concentration of added growth factor was fit to a sigmoidal function.
Mitogenic activity towards NIH 3T3 fibroblasts was determined for WT*, SYM5, SYM5Δ104-106, SYM5Δ120-122, and SYM6ΔΔ mutants. […] The NIH 3T3 fibroblast proliferative activity of WT* FGF-1 yielded an effective concentration for 50% maximal stimulation (EC50) of 60 ng/ml (FIG. 3).

A short description of data set [3]: Isothermal equilibrium denaturation in guanidine HCl monitored by CD. Format: physicochemical. The following applies: relative to SYM6ΔΔ. The protocol: Protein samples were equilibrated overnight in 20 mM N-2-(acetamido)iminodiacetic acid (ADA), 100 mM NaCl pH 6.60 at 298K in 0.1M increments of guanidine HCl (GuHCl). All samples contained a final protein concentration of 25 μM. An Aviv model 202 circular dichroism spectrometer (Proterion Corp., Piscataway, N.J.) equipped with a Peltier controlled temperature unit maintaining a constant temperature of 298K was used for all spectroscopic measurements. For each sample, triplicate scans were collected and averaged. Buffer traces were collected, averaged and subtracted from the sample traces. Data smoothing was performed prior to buffer subtraction using a 5-point Fourier transform filter. The denaturation process was monitored by observing the change in CD signal at 227 nm with increasing GuHCl, according to published references. The general purpose non-linear least squares fitting program DataFit™ (Oakdale Engineering, Oakdale Pa.) was used to fit the change in molar ellipticity at 227 nm versus GuHCl concentration to a six parameter two state model: F=(F0N+SN[D]+F0D+SD[D])e^−((ΔG0+m[D]/RT)/1+e^−((ΔG0+m[D]/RT) (1) where [D] is the denaturant concentration, F0N and F0D are the 0M denaturant molar ellipticity intercepts for the native and denatured states, respectively, and SN and SD are the slopes of the native and denatured state baselines, respectively. ΔG0 and m describe the linear function of the unfolding free energy versus denaturant concentration at 298K. The effect of a given mutation upon the stability of the protein (ΔΔG) was calculated by taking the difference between the Cm values for WT* and mutant and multiplying by the average of the m values, as described by Pace and Scholtz (Measuring the conformational stability of a protein; in Protein Structure: A Practical Approach, Creighton, T. E., ed., pp. 299-321, Oxford University Press, Oxford; 1997): ΔΔG=(CmWT*−Cm mutant)(mWT*+mmutant)/2 (2) Folding Kinetics Measurements.
Previous studies by others of the stability and folding of FGF-1 have been performed by monitoring the fluorescence signal of the single buried Trp 107 in FGF-1. This Trp in the WT* structure is somewhat unusual in that it is more highly quenched in the native state than the denatured. […] We have previously compared the fluorescence and CD spectroscopic response of FGF-1 to denaturation by GuHCl and shown essentially indistinguishable results for both his-tagged and non-his-tagged forms. A tabulation of the mutant thermodynamic data from isothermal equilibrium denaturation, monitored by CD signal, is listed in Table II. The data in this table for the SYM6 mutant are from our previously published isothermal equilibrium denaturation study monitored by fluorescence.

The conditions of data set [4]: monitored by fluorescence signal, cited from earlier work.
A short description of data set [5]: Precipitation during purification or concentration. The format is physicochemical. On the procedure: All mutant proteins, with the exception of the SYM6 mutant were expressed at levels similar to the WT* protein (i.e. ˜30-100 mg/L). […] The His-tag provides the WT* and mutant FGF-1 proteins with nickel binding affinity, and FGF-1 naturally has a heparin binding site. These two affinity sites were employed in a purification scheme utilizing sequential nickel-NTA and heparin Sepharose® affinity chromatography resins. However, mutant forms of FGF-1 involving the Δ120-122 mutation lacked heparin-binding affinity. These mutants were, therefore, purified by the substitution of gel filtration chromatography for the heparin Sepharose® affinity chromatography. The extinction coefficients used for concentration determination were E280nm (0.1%, 1 cm)=1.26 for WT* and other mutations not involving deletions or the Leu44 ? […] Phe, and E280nm (0.1%, 1 cm)=1.31 for all deletion mutations (determined by dithionitrobenzoate titration of cysteine residues).
Due to the relatively weak differential CD signal of native and denatured FGF-1, the folding kinetics study required relatively high protein concentrations (>5 mg/ml). […] The SYM6Δ120-122 mutant is substantially destabilized relative to the WT* protein (see Table II) and presents a relatively short “folding arm” in the Chevron plot, for this reason there is greater uncertainty associated with the folding kinetics determined for this mutant. […]

Entries after “also recorded” stand apart in the source; their conditions may differ.

B1: WTΔ120-122: Wild type FGF-1 polypeptide with a deletion at positions 120-122, SEQ ID NO: 3 (protein)
chain: FNLPPGNYKKPKLLYCSNGGHFLRILPDGTVDGTRDRSDQHIQLQLSAESVGEVYIKSTETGQYLAMDTDGLLYGSQTPNEECLFLERLEENHYNTYISKKHAEKNWFVGLKKNGSCKGTHYGQKAILFLPLPVSSD
modifications: Human FGF-1 mutant WTD120-122
Turning to B1, the “heparin binding affinity, predicted” value in data set [1] is recorded as “decreased heparin binding affinity”. In addition, the “mitogenicity, predicted” value in data set [2] is listed as “increased biological activity with regard to mitogenicity”.

B2: SYM6: FGF-1 core mutant Leu44→Phe/Met67→Ile/Leu73→Val/Val109→Leu/Leu111→Ile/Cys117→Val (protein, UniProt P05230 16-155, looked up, variant L44F M67I L73V V109L L111I C117V)
Fibroblast growth factor 1: FNLPPGNYKKPKLLYCSNGGHFLRILPDGTVDGTRDRSDQHIQFQLSAESVGEVYIKSTETGQYLAIDTDGLVYGSQTPNEECLFLERLEENHYNTYISKKHAEKNWFLGIKKNGSVKRGPRTHYGQKAILFLPLPVSSD
As for B2, the “effect on stability of the two loop insertions” value in data set [3] is given as “+25.3 kJ/mol”. Besides, in data set [4] (previously reported), the Cm is given as 0.54 ± 0.01 M, the m-value is 19.3 ± 1.9 kJ/mol M and the ΔG0 is 2.49 ± 0.19 kcal/mol. In addition, in data set [4] (relative to WT*, previously reported data), the ΔΔG was 2.44 kcal/mol. For the same molecule, the “precipitation / solubility (in words)” value in data set [5] was “tendency to precipitate during purification; also recorded: typically precipitated during concentration”.
